This data set addresses YB-1 (expressed from YB-1/RSV) (Homo sapiens) (UniProt P67809). The experiment in a line: cell_activity. Particulars: human glioblastoma cells.

Here are results for two substances from US20020091083.

The substance “COL1A2 promoter -161 to +57 CAT non-binding reporter” came in with an activity (relative CAT activity) (no repression, empty vector pRc/RSV = 1.1) of 1.
Consider “COL1A2 promoter -161 to +57 CAT binding reporter”, for which the activity (relative CAT activity) (repression, empty vector pRc/RSV = 1.0) came out at 0.6.
